Results taken from patent US20250262210A1 (TRUSTEES OF COLUMBIA UNIVERSITY IN THE CITY OF NEW YORK, published 2025).

Tests used:
Assay in all cases: IP/MS, LZTR1 R810W-FLAG, U87
[1] = biological target: CRYBG1 (human, UniProt Q9Y4K1 1-2131, limits assumed)
Summary of the method: (§1)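 Read-out: spectral counts from LC-MS/MS (Orbitrap Fusion) after MaxQuant identification. Variable modifications were Met oxidation, protein N-terminal acetylation and N/Q deamidation.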

[2] = biological target: T1, FHOD1 (human, UniProt Q9Y613 2-1164)
T1 sequence (looked up): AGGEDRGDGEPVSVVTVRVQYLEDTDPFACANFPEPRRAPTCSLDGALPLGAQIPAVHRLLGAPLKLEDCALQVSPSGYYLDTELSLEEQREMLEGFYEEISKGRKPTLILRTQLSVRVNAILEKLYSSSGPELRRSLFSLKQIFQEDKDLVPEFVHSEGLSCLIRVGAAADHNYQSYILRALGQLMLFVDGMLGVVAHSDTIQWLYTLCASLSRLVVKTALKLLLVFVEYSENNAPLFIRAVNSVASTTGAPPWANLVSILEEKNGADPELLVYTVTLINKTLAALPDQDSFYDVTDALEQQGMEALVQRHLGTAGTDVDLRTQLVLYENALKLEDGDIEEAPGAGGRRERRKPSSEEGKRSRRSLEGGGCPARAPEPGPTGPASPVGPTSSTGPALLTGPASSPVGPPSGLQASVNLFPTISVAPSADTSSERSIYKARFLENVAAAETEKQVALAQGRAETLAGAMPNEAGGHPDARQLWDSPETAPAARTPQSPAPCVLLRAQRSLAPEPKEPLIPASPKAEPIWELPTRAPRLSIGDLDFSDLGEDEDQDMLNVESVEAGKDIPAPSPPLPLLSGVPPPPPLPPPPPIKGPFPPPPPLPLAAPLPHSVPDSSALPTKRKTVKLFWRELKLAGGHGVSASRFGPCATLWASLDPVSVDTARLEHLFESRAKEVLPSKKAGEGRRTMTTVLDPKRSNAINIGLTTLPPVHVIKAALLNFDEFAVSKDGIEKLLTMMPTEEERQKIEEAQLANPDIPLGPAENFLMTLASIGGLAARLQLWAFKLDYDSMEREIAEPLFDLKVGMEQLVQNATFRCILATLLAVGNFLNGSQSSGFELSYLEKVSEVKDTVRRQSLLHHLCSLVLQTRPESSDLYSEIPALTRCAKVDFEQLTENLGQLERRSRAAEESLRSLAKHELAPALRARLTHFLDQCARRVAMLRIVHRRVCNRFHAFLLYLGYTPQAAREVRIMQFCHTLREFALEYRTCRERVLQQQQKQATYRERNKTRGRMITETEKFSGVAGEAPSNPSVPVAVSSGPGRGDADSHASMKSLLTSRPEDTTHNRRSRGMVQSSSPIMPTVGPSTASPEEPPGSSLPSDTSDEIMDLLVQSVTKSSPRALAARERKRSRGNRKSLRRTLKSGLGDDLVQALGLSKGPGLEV
Summary of the method: as §1

[3] = biological target: T2, GTF3C2 (human, UniProt Q8WUA4 1-911, limits assumed)
T2 sequence (looked up): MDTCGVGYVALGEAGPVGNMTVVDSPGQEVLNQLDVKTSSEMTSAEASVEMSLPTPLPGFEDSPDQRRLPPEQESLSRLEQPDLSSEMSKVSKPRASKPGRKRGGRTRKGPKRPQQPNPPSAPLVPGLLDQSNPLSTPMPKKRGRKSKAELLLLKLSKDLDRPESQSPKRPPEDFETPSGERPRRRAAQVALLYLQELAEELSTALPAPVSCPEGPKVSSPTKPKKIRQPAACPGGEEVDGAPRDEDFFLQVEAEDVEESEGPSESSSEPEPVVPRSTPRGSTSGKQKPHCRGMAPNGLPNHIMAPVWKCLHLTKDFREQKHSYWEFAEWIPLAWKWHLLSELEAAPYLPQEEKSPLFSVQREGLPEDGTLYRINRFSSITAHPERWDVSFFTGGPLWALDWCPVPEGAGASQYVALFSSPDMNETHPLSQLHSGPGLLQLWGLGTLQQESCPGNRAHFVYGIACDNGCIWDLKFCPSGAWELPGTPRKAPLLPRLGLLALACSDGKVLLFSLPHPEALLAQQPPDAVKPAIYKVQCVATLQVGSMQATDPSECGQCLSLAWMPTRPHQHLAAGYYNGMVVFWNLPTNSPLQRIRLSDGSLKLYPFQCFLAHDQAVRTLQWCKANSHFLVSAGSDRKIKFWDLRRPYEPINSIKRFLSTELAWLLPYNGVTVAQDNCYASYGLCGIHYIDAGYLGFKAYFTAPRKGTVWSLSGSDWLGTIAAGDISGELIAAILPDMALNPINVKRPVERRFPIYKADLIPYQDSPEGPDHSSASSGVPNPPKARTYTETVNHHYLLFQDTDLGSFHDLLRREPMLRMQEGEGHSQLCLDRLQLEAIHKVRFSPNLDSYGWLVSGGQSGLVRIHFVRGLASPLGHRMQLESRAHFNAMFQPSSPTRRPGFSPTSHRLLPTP
Summary of the method: as §1

Measured: binding result

Chain of CRYBG1 (Q9Y4K1 whole entry, the tested form may be a part): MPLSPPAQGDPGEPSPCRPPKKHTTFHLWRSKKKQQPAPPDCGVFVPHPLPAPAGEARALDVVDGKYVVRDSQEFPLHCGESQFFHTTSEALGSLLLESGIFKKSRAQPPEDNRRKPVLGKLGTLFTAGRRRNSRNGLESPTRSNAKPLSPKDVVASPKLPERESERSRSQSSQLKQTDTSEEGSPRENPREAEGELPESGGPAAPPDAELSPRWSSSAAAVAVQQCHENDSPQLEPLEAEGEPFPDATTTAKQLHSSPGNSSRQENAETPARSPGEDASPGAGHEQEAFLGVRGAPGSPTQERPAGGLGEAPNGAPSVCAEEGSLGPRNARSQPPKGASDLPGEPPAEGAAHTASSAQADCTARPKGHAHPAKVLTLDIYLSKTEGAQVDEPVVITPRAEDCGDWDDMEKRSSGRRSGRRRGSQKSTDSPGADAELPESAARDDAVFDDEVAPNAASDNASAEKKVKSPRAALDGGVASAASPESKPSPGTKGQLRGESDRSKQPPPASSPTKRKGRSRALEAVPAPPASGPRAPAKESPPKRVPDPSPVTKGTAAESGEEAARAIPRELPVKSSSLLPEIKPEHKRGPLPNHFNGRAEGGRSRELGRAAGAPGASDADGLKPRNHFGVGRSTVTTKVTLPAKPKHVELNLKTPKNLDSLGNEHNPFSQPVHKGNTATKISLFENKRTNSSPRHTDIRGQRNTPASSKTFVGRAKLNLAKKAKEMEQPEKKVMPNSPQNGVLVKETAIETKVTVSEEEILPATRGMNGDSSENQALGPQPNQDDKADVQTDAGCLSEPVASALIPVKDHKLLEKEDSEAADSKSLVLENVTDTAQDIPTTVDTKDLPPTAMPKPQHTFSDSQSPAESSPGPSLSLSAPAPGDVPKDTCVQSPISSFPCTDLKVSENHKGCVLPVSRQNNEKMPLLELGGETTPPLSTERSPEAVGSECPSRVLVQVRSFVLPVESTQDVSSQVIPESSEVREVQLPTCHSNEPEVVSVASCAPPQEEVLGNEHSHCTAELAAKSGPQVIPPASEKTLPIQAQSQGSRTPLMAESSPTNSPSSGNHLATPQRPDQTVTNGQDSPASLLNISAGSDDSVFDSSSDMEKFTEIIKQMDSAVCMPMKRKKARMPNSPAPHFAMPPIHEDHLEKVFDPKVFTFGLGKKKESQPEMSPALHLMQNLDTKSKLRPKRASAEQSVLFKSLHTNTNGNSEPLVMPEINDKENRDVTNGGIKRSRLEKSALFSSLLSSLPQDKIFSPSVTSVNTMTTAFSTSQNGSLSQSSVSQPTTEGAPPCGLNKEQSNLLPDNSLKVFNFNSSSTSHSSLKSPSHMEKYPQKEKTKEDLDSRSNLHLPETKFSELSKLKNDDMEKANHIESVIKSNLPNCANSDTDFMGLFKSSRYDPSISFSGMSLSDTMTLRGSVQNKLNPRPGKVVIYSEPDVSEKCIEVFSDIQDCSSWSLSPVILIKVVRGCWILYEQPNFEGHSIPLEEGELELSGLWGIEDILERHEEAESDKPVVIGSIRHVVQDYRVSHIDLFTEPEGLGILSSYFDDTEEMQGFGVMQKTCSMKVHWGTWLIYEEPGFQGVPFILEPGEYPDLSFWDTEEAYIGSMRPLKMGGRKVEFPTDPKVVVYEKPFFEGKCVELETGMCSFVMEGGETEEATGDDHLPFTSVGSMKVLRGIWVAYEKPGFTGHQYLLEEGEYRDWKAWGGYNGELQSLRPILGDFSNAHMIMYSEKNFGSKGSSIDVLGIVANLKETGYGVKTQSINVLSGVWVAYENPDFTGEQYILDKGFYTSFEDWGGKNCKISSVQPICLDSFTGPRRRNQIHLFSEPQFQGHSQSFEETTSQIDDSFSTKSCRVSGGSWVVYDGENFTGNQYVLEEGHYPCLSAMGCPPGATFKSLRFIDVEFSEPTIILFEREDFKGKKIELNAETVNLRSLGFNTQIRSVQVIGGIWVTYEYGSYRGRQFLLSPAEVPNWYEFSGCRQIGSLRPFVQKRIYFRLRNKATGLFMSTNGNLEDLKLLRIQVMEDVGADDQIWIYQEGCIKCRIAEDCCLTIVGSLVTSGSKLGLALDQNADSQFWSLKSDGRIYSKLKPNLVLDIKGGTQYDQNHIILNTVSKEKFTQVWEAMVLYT

B1: LZTR1 R810W-FLAG (other, human, UniProt Q8N653 1-840, looked up)
chain: MAGPGSTGGQIGAAALAGGARSKVAPSVDFDHSCSDSVEYLTLNFGPFETVHRWRRLPPCDEFVGARRSKHTVVAYKDAIYVFGGDNGKTMLNDLLRFDVKDCSWCRAFTTGTPPAPRYHHSAVVYGSSMFVFGGYTGDIYSNSNLKNKNDLFEYKFATGQWTEWKIEGRLPVARSAHGATVYSDKLWIFAGYDGNARLNDMWTIGLQDRELTCWEEVAQSGEIPPSCCNFPVAVCRDKMFVFSGQSGAKITNNLFQFEFKDKTWTRIPTEHLLRGSPPPPQRRYGHTMVAFDRHLYVFGGAADNTLPNELHCYDVDFQTWEVVQPSSDSEVGGAEVPERACASEEVPTLTYEERVGFKKSRDVFGLDFGTTSAKQPTQPASELPSGRLFHAAAVISDAMYIFGGTVDNNIRSGEMYRFQFSCYPKCTLHEDYGRLWESRQFCDVEFVLGEKEECVQGHVAIVTARSRWLRRKITQARERLAQKLEQEAAPVPREAPGVAAGGARPPLLHVAIREAEARPFEVLMQFLYTDKIKYPRKGHVEDVLLIMDVYKLALSFQLCRLEQLCRQYIEASVDLQNVLVVCESAARLQLSQLKEHCLNFVVKESHFNQVIMMKEFERLSSPLIVEIVRRKQQPPPRTPLDQPVDIGTSLIQDMKAYLEGAGAEFCDITLLLDGHPRPAHKAILAARSSYFEAMFRSFMPEDGQVNISIGEMVPSRQAFESMLRYIYYGEVNMPPEDSLYLFAAPYYYGFYNNRLQAYCKQNLEMNVTVQNVLQILEAADKTQALDMKRHCLHIIVHQFTKVSKLPTLWSLSQQLLLDIIDSLASHISDKQCAELGADI
notes: Stably expressed in U87 cells by lentivirus; also called LZTR1-FLAG-R810W; LZTR1 RW; not shown: FLAG tag
binds: all assays above
